Measurements published in PMC3255974.

Test: parallel wall flow chamber, 293T α4β7 transfectants
Conditions: glycan lost; control: wild type

B1: integrin β7 subunit: N260A (protein)
parent chain: MVALPMVLVLLLVLSRGESELDAKIPSTGDATEWRNPHLSMLGSCQPAPSCQKCILSHPSCAWCKQLNFTASGEAEARRCARREELLARGCPLEELEEPRGQQEVLQDQPLSQGARGEGATQLAPQRVRVTLRPGEPQQLQVRFLRAEGYPVDLYYLMDLSYSMKDDLERVRQLGHALLVRLQEVTHSVRIGFGSFVDKTVLPFVSTVPSKLRHPCPTRLERCQSPFSFHHVLSLTGDAQAFEREVGRQSVSGNLDSPEGGFDAILQAALCQEQIGWRNVSRLLVFTSDDTFHTAGDGKLGGIFMPSDGHCHLDSNGLYSRSTEFDYPSVGQVAQALSAANIQPIFAVTSAALPVYQELSKLIPKSAVGELSEDSSNVVQLIMDAYNSLSSTVTLEHSSLPPGVHISYESQCEGPEKREGKAEDRGQCNHVRINQTVTFWVSLQATHCLPEPHLLRLRALGFSEELIVELHTLCDCNCSDTQPQAPHCSDGQGHLQCGVCSCAPGRLGRLCECSVAELSSPDLESGCRAPNGTGPLCSGKGHCQCGRCSCSGQSSGHLCECDDASCERHEGILCGGFGRCQCGVCHCHANRTGRACECSGDMDSCISPEGGLCSGHGRCKCNRCQCLDGYYGALCDQCPGCKTPCERHRDCAECGAFRTGPLATNCSTACAHTNVTLALAPILDDGWCKERTLDNQLFFFLVEDDARGTVVLRVRPQEKGADHTQAIVLGCVGGIVAVGLGLVLAYRLSVEIYDRREYSRFEKEQQQLNWKQDSNPLYKSAITTTINPRFQEADSPTL
- other: rolling cell adhesion in shear flow: increases
